The values below come from CN108753792A (UNIV SUN YAT SEN, dated 2018).

The target of assay [1] is T1, MBP (UniProt P0AEX9 27-396 = MBP). The assay is described as follows: Native-PAGE mobility shift, Coomassie staining (Fig. 6D).
Assay [2] deals with T1, MBP. The assay is described as follows: Native-PAGE mobility shift, Coomassie staining (Fig. 6C).

B1: 绿色荧光蛋白(GFP)纳米抗体 E6 (VHH)
VHH: DVQLQESGGGLVQAGGSLRLSCAASGRFVSSYIMGWFRQAPGKEREAVASILRSVDATYYADSVKGRFTISRDNDKNTVYLQMNSLKPEDTAVYYCATRARGYFGSFGRLWPDDRQYDYWGQGTQVTVSS
modifications: biotinylated (Sulfo-NHS-LC-biotin kit) in the ELISA of Example 5; not biotinylated in the Native-PAGE of Example 6
notes: Printed molecular weight 18.4 KDa; also called E6抗体; pBAD24-Flag-E6-His; not shown: Flag tag from vector pBAD24-Flag-His; C-terminal 6xHis tag from vector pBAD24-Flag-His
As to B1, the binding result in the assay with MBP [1] is reported as “no binding (tested: 3μg MBP和3μg纯化的纳米抗体)”.

B2: 绿色荧光蛋白(GFP)纳米抗体 D5 (VHH)
VHH: DVQLQESGGGLVQPGGSLRLSCAASGIIFSIYDMGWYRQAPGKQRELVALITIHRSTNYEDSVKGRFTISRDNAKNTVYLQMNSLKPEDTAVYYCNANGVNYQYWGQGTQVTVSS
modifications: biotinylated (Sulfo-NHS-LC-biotin kit) in the ELISA of Example 5; not biotinylated in the Native-PAGE of Example 6
notes: Printed molecular weight 16.6 KDa; also called D5抗体; D5-biotin; not shown: Flag tag from vector pBAD24-Flag-His; C-terminal 6xHis tag from vector pBAD24-Flag-His
B2: the binding result with MBP [1] is reported as “no binding (tested: 3μg MBP和3μg纯化的纳米抗体)”.

B3: 绿色荧光蛋白(GFP)纳米抗体 A12 (VHH)
VHH: DVQLQESGGGLVQAGGSLRLSCAASGGTFSILSLGWFRQAPGKEREFVAAISRSEGSTDYADFVKGRFMISRENAKNTAYLQMNSLKPEDTAVYFCAASYARRLSTTASRVLYWGQGTQVTVSS
modifications: biotinylated (Sulfo-NHS-LC-biotin kit) in the ELISA of Example 5; not biotinylated in the Native-PAGE of Example 6
notes: Printed molecular weight 15.7 KDa; also called A12抗体; pADL-10b-A12-His; not shown: C-terminal 6xHis tag from vector pADL-10b-His
As to B3, the binding result with MBP [2] was “no binding (tested: 3μg MBP和3μg纯化的纳米抗体)”.
